Test system: Escherichia coli TOP10
Experiment: shrunken log2 fold change of peptide-encoding DNA abundance (4.5 h post-induction vs induction); higher = less antimicrobial activity (less host growth inhibition)
Settings: time post-induction: 4.5 h; library: site-saturation at positions 5, 18, 19, 20
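Also: peptides expressed intracellularly from a pBAD plasmid library in pooled LB shake-flask culture, induced with 0.3% L-arabinose, DNA abundance read by NGS, three biological replicates, DESeq2 with apeglm shrinkage.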

## RRIRWRPPRLPRPRPRPNAPPRP
  shrunken log2 fold change: 0.328

## RRIRQRPPRLPRPRPRPTPFPRP
  shrunken log2 fold change: 0.296

## RRIRYRPPRLPRPRPRPEIRPRP
  shrunken log2 fold change: -0.0132

## RRIRCRPPRLPRPRPRPFSFPRP
  shrunken log2 fold change: -0.513

## RRIRRRPPRLPRPRPRPEARPRP
  shrunken log2 fold change: 0.172

## RRIRGRPPRLPRPRPRPCDPPRP
  shrunken log2 fold change: 0.228

## RRIRVRPPRLPRPRPRPIHFPRP
  shrunken log2 fold change: -0.0962

## RRIRFRPPRLPRPRPRPGKWPRP
  shrunken log2 fold change: -0.0163

## RRIRDRPPRLPRPRPRPIPQPRP
  shrunken log2 fold change: -0.0127

## RRIRIRPPRLPRPRPRPDSDPRP
  shrunken log2 fold change: -0.0273

## RRIRVRPPRLPRPRPRPIVYPRP
  shrunken log2 fold change: -0.0876

## RRIRKRPPRLPRPRPRPQMGPRP
  shrunken log2 fold change: 0.0203

## RRIRGRPPRLPRPRPRPMWRPRP
  shrunken log2 fold change: 0.899

## RRIRNRPPRLPRPRPRPAIIPRP
  shrunken log2 fold change: 0.154

## RRIRLRPPRLPRPRPRPLCNPRP
  shrunken log2 fold change: -0.453

## RRIRCRPPRLPRPRPRPMDDPRP
  shrunken log2 fold change: -0.194

## RRIRQRPPRLPRPRPRPSGRPRP
  shrunken log2 fold change: 0.137

## RRIRERPPRLPRPRPRPGAIPRP
  shrunken log2 fold change: -0.187

## RRIRHRPPRLPRPRPRPSNGPRP
  shrunken log2 fold change: -0.605

## RRIRFRPPRLPRPRPRPCETPRP
  shrunken log2 fold change: -0.00947

## RRIRNRPPRLPRPRPRPESMPRP
  shrunken log2 fold change: 0.669

## RRIRRRPPRLPRPRPRPMRGPRP
  shrunken log2 fold change: 1.38

## RRIRFRPPRLPRPRPRPKSEPRP
  shrunken log2 fold change: -0.213

## RRIRHRPPRLPRPRPRPDWMPRP
  shrunken log2 fold change: -0.222

## RRIRTRPPRLPRPRPRPTRWPRP
  shrunken log2 fold change: 0.301

## RRIRCRPPRLPRPRPRPCFAPRP
  shrunken log2 fold change: -0.162

## RRIRERPPRLPRPRPRPWNGPRP
  shrunken log2 fold change: 0.208

## RRIRDRPPRLPRPRPRPNMWPRP
  shrunken log2 fold change: -0.152

## RRIRRRPPRLPRPRPRPYINPRP
  shrunken log2 fold change: -0.832

## RRIRWRPPRLPRPRPRPWDFPRP
  shrunken log2 fold change: -0.2

## RRIRWRPPRLPRPRPRPFVCPRP
  shrunken log2 fold change: -0.108

## RRIRRRPPRLPRPRPRPYMNPRP
  shrunken log2 fold change: -0.621

## RRIRTRPPRLPRPRPRPHYWPRP
  shrunken log2 fold change: -0.25

## RRIRIRPPRLPRPRPRPIWFPRP
  shrunken log2 fold change: -0.164

## RRIRARPPRLPRPRPRPWCDPRP
  shrunken log2 fold change: 0.00114

## RRIRIRPPRLPRPRPRPEVLPRP
  shrunken log2 fold change: -0.0175

## RRIRYRPPRLPRPRPRPFHLPRP
  shrunken log2 fold change: -0.532

## RRIRHRPPRLPRPRPRPSQNPRP
  shrunken log2 fold change: -0.0324

## RRIRKRPPRLPRPRPRPYCRPRP
  shrunken log2 fold change: -0.214

## RRIRERPPRLPRPRPRPVKEPRP
  shrunken log2 fold change: -0.0153

## RRIRLRPPRLPRPRPRPYIMPRP
  shrunken log2 fold change: -1.45

## RRIRERPPRLPRPRPRPNCGPRP
  shrunken log2 fold change: -0.26

## RRIRWRPPRLPRPRPRPDLEPRP
  shrunken log2 fold change: 0.974

## RRIRKRPPRLPRPRPRPPQQPRP
  shrunken log2 fold change: 0.346

## RRIRVRPPRLPRPRPRPWDAPRP
  shrunken log2 fold change: -0.0951

## RRIRKRPPRLPRPRPRPYHDPRP
  shrunken log2 fold change: 0.035

## RRIRWRPPRLPRPRPRPNTPPRP
  shrunken log2 fold change: 0.144

## RRIRQRPPRLPRPRPRPYQRPRP
  shrunken log2 fold change: -0.52

## RRIRLRPPRLPRPRPRPYAHPRP
  shrunken log2 fold change: -0.0393

## RRIRCRPPRLPRPRPRPDNGPRP
  shrunken log2 fold change: -0.0856

## RRIRCRPPRLPRPRPRPKKRPRP
  shrunken log2 fold change: 0.156

## RRIRNRPPRLPRPRPRPYTMPRP
  shrunken log2 fold change: -0.38

## RRIRYRPPRLPRPRPRPCWRPRP
  shrunken log2 fold change: -0.138

## RRIRKRPPRLPRPRPRPVDPPRP
  shrunken log2 fold change: 0.417

## RRIRSRPPRLPRPRPRPLKTPRP
  shrunken log2 fold change: -0.0127

## RRIRLRPPRLPRPRPRPRSGPRP
  shrunken log2 fold change: 0.122

## RRIRGRPPRLPRPRPRPNREPRP
  shrunken log2 fold change: -0.0791

## RRIRARPPRLPRPRPRPSWWPRP
  shrunken log2 fold change: 0.695

## RRIRGRPPRLPRPRPRPLWIPRP
  shrunken log2 fold change: 0.163

## RRIRLRPPRLPRPRPRPTLNPRP
  shrunken log2 fold change: -0.0428

## RRIRKRPPRLPRPRPRPATMPRP
  shrunken log2 fold change: 0.49

## RRIRFRPPRLPRPRPRPLTEPRP
  shrunken log2 fold change: -0.331

## RRIRVRPPRLPRPRPRPRVIPRP
  shrunken log2 fold change: -0.0308

## RRIRPRPPRLPRPRPRPSYEPRP
  shrunken log2 fold change: -0.178

## RRIRDRPPRLPRPRPRPRKFPRP
  shrunken log2 fold change: -0.0848

## RRIRTRPPRLPRPRPRPPIRPRP
  shrunken log2 fold change: -0.1

## RRIRKRPPRLPRPRPRPKKRPRP
  shrunken log2 fold change: 1.09

## RRIRFRPPRLPRPRPRPSHGPRP
  shrunken log2 fold change: -0.391

## RRIRWRPPRLPRPRPRPMSFPRP
  shrunken log2 fold change: 0.00806

## RRIRLRPPRLPRPRPRPRCDPRP
  shrunken log2 fold change: -0.0342

## RRIRKRPPRLPRPRPRPMFHPRP
  shrunken log2 fold change: -0.144

## RRIRIRPPRLPRPRPRPWILPRP
  shrunken log2 fold change: -0.349

## RRIRRRPPRLPRPRPRPCHYPRP
  shrunken log2 fold change: 0.00952

## RRIRSRPPRLPRPRPRPIKQPRP
  shrunken log2 fold change: -0.13

## RRIRVRPPRLPRPRPRPGFLPRP
  shrunken log2 fold change: 0.101

## RRIRSRPPRLPRPRPRPSFVPRP
  shrunken log2 fold change: -0.705

## RRIRSRPPRLPRPRPRPGHIPRP
  shrunken log2 fold change: -0.109

## RRIRSRPPRLPRPRPRPYGGPRP
  shrunken log2 fold change: -0.608

## RRIRDRPPRLPRPRPRPESMPRP
  shrunken log2 fold change: 0.0145

## RRIRTRPPRLPRPRPRPSQFPRP
  shrunken log2 fold change: -0.302

## RRIRPRPPRLPRPRPRPRNIPRP
  shrunken log2 fold change: -0.222

## RRIRSRPPRLPRPRPRPLNVPRP
  shrunken log2 fold change: -0.0872

## RRIRERPPRLPRPRPRPKTEPRP
  shrunken log2 fold change: -0.0578

## RRIRLRPPRLPRPRPRPFVRPRP
  shrunken log2 fold change: 0.00108

## RRIRQRPPRLPRPRPRPKFRPRP
  shrunken log2 fold change: 0.0034

## RRIRDRPPRLPRPRPRPSSLPRP
  shrunken log2 fold change: 0.15

## RRIRDRPPRLPRPRPRPIVPPRP
  shrunken log2 fold change: -0.142

## RRIRNRPPRLPRPRPRPAAVPRP
  shrunken log2 fold change: 0.158

## RRIRMRPPRLPRPRPRPKRTPRP
  shrunken log2 fold change: 3.45

## RRIRQRPPRLPRPRPRPLQLPRP
  shrunken log2 fold change: -0.126

## RRIRERPPRLPRPRPRPHGWPRP
  shrunken log2 fold change: 0.136

## RRIRIRPPRLPRPRPRPKVWPRP
  shrunken log2 fold change: -0.0123

## RRIRNRPPRLPRPRPRPTPEPRP
  shrunken log2 fold change: 0.0889

## RRIRLRPPRLPRPRPRPNQAPRP
  shrunken log2 fold change: -0.0446

## RRIRIRPPRLPRPRPRPTVQPRP
  shrunken log2 fold change: -0.146

## RRIRGRPPRLPRPRPRPPFVPRP
  shrunken log2 fold change: 0.803

## RRIRARPPRLPRPRPRPKDNPRP
  shrunken log2 fold change: 0.153

## RRIRSRPPRLPRPRPRPLFMPRP
  shrunken log2 fold change: -0.236

## RRIRVRPPRLPRPRPRPKPSPRP
  shrunken log2 fold change: 0.313

## RRIRFRPPRLPRPRPRPTGPPRP
  shrunken log2 fold change: 0.445

## RRIRGRPPRLPRPRPRPRFIPRP
  shrunken log2 fold change: 0.123

## RRIRSRPPRLPRPRPRPSPQPRP
  shrunken log2 fold change: -0.108

## RRIRARPPRLPRPRPRPYQTPRP
  shrunken log2 fold change: 0.00502

## RRIRRRPPRLPRPRPRPPDVPRP
  shrunken log2 fold change: 0.474

## RRIRWRPPRLPRPRPRPWCAPRP
  shrunken log2 fold change: 0.0379

## RRIRNRPPRLPRPRPRPEATPRP
  shrunken log2 fold change: 0.556

## RRIRTRPPRLPRPRPRPNFGPRP
  shrunken log2 fold change: -0.0173

## RRIRNRPPRLPRPRPRPCSVPRP
  shrunken log2 fold change: 0.0192

## RRIRQRPPRLPRPRPRPIFTPRP
  shrunken log2 fold change: -0.123

## RRIRLRPPRLPRPRPRPSSYPRP
  shrunken log2 fold change: -0.542

## RRIRTRPPRLPRPRPRPSNKPRP
  shrunken log2 fold change: -0.916

## RRIRRRPPRLPRPRPRPAKKPRP
  shrunken log2 fold change: 1.04

## RRIRVRPPRLPRPRPRPVTGPRP
  shrunken log2 fold change: -0.233

## RRIRSRPPRLPRPRPRPPWKPRP
  shrunken log2 fold change: -0.0556

## RRIRLRPPRLPRPRPRPLQEPRP
  shrunken log2 fold change: -0.101

## RRIRWRPPRLPRPRPRPGHVPRP
  shrunken log2 fold change: 0.153

## RRIRQRPPRLPRPRPRPTQSPRP
  shrunken log2 fold change: 0.375

## RRIRFRPPRLPRPRPRPFALPRP
  shrunken log2 fold change: -0.00558

## RRIRERPPRLPRPRPRPRRPPRP
  shrunken log2 fold change: 0.27

## RRIRNRPPRLPRPRPRPCYVPRP
  shrunken log2 fold change: -0.0102

## RRIRCRPPRLPRPRPRPWNRPRP
  shrunken log2 fold change: -0.162

## RRIRIRPPRLPRPRPRPQVKPRP
  shrunken log2 fold change: -0.405

## RRIRFRPPRLPRPRPRPECWPRP
  shrunken log2 fold change: 0.675

## RRIRTRPPRLPRPRPRPGCYPRP
  shrunken log2 fold change: -0.115

## RRIRCRPPRLPRPRPRPIAVPRP
  shrunken log2 fold change: -0.0152

## RRIRWRPPRLPRPRPRPPKKPRP
  shrunken log2 fold change: 1.27

## RRIRLRPPRLPRPRPRPGKDPRP
  shrunken log2 fold change: -0.153

## RRIRSRPPRLPRPRPRPSYIPRP
  shrunken log2 fold change: -1.48

## RRIRRRPPRLPRPRPRPWHRPRP
  shrunken log2 fold change: -0.113

## RRIRRRPPRLPRPRPRPPNWPRP
  shrunken log2 fold change: 0.581

## RRIRYRPPRLPRPRPRPCIDPRP
  shrunken log2 fold change: -0.00448

## RRIRRRPPRLPRPRPRPNNWPRP
  shrunken log2 fold change: 0.612

## RRIRIRPPRLPRPRPRPWPGPRP
  shrunken log2 fold change: -0.172

## RRIRNRPPRLPRPRPRPDPIPRP
  shrunken log2 fold change: -0.143

## RRIRGRPPRLPRPRPRPDIVPRP
  shrunken log2 fold change: 0.192

## RRIRDRPPRLPRPRPRPRIKPRP
  shrunken log2 fold change: -0.454

## RRIRLRPPRLPRPRPRPMNMPRP
  shrunken log2 fold change: -0.0334

## RRIRCRPPRLPRPRPRPMADPRP
  shrunken log2 fold change: -0.0181

## RRIRFRPPRLPRPRPRPPYQPRP
  shrunken log2 fold change: -0.125

## RRIRPRPPRLPRPRPRPKKQPRP
  shrunken log2 fold change: -0.15

## RRIRARPPRLPRPRPRPQTLPRP
  shrunken log2 fold change: 0.0847

## RRIRIRPPRLPRPRPRPFFLPRP
  shrunken log2 fold change: -0.406

## RRIRYRPPRLPRPRPRPCTEPRP
  shrunken log2 fold change: -0.531

## RRIRHRPPRLPRPRPRPRVPPRP
  shrunken log2 fold change: -0.134

## RRIRLRPPRLPRPRPRPEEMPRP
  shrunken log2 fold change: 0.034

## RRIRGRPPRLPRPRPRPPFYPRP
  shrunken log2 fold change: 0.397

## RRIRNRPPRLPRPRPRPFDGPRP
  shrunken log2 fold change: -0.0509

## RRIRVRPPRLPRPRPRPHAFPRP
  shrunken log2 fold change: 0.0978

## RRIRLRPPRLPRPRPRPFYRPRP
  shrunken log2 fold change: -0.295

## RRIRFRPPRLPRPRPRPDWYPRP
  shrunken log2 fold change: -0.0899
